Here are results for nine sequences from paper PMC12990809.

What all share (assay): pulldown
For one series, the target named is HNRNPC (Homo sapiens) (UniProt P07910). The settings on record: 20 nM protein, 1.5 uM RNA pool; 20 mM HEPES pH 7.8, 70 mM KCl, 10 mM NaCl, 10% glycerol, 2 mM DTT, 0.1 ug/uL BSA; 30 min, 4 C (protocol of this paper; not …); cited from earlier work.
The target of series [1] is T1, RBM47 ins277_K (Meleagris gallopavo) (UniProt G1NI04).
T1 sequence: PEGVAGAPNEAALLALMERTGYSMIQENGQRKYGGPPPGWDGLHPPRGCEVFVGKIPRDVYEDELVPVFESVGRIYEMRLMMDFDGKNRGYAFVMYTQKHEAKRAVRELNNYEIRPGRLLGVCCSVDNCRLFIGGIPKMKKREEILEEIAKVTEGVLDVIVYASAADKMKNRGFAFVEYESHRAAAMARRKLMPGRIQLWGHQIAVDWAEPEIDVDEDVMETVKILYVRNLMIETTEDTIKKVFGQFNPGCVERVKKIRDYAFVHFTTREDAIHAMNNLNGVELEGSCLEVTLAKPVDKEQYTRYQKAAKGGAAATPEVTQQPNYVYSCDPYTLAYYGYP
The settings on record: 20 nM protein, 1.5 uM RNA pool; 20 mM HEPES pH 7.8, 70 mM KCl, 10 mM NaCl, 10% glycerol, 2 mM DTT, 0.1 ug/uL BSA; 30 min, 4 C.

Series [2] concerns the target T2, nrd1 (Schizosaccharomyces pombe) (UniProt Q09702).
T2 sequence: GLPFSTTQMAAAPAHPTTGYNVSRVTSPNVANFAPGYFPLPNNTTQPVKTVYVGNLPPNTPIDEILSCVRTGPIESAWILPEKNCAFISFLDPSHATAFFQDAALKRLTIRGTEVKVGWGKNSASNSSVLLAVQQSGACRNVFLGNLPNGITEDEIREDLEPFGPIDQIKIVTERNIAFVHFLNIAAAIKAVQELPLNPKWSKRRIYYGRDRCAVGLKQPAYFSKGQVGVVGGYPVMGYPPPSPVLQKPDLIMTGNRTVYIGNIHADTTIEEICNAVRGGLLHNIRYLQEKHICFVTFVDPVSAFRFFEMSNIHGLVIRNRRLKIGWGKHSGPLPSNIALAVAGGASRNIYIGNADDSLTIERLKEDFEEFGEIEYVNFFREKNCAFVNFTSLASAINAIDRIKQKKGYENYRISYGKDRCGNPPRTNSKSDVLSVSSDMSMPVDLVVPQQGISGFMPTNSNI
The settings on record: 20 nM protein, 1.5 uM RNA pool; 20 mM HEPES pH 7.8, 70 mM KCl, 10 mM NaCl, 10% glycerol, 2 mM DTT, 0.1 ug/uL BSA; 30 min, 4 C.

Series [3] deals with T3, Y57G11C.36 (Caenorhabditis elegans) (UniProt Q8I4C4).
T3 sequence: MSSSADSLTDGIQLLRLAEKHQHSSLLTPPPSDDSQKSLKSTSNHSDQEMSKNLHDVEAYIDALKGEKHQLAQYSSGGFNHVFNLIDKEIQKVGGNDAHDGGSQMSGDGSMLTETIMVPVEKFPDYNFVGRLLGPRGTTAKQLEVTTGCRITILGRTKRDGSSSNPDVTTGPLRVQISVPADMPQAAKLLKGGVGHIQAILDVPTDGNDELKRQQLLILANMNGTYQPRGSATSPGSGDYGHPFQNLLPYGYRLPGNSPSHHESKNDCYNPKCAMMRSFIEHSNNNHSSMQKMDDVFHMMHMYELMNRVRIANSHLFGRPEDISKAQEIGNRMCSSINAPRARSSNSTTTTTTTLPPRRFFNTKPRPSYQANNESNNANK
The settings on record: 20 nM protein, 1.5 uM RNA pool; 20 mM HEPES pH 7.8, 70 mM KCl, 10 mM NaCl, 10% glycerol, 2 mM DTT, 0.1 ug/uL BSA; 30 min, 4 C.

The target of series [4] is T4, CBG05471 (Caenorhabditis briggsae) (UniProt A8WZY6).
T4 sequence: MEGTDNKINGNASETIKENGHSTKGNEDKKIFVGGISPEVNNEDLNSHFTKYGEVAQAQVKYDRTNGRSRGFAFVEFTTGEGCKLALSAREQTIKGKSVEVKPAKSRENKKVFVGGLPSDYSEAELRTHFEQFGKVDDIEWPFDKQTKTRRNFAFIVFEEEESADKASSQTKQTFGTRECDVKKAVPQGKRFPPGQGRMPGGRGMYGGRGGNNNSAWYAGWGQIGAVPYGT
The settings on record: 20 nM protein, 1.5 uM RNA pool; 20 mM HEPES pH 7.8, 70 mM KCl, 10 mM NaCl, 10% glycerol, 2 mM DTT, 0.1 ug/uL BSA; 30 min, 4 C.

Series [5] has as its target T5, Smp_036270 E366G (Schistosoma mansoni) (UniProt A0A3Q0KEI3).
T5 sequence: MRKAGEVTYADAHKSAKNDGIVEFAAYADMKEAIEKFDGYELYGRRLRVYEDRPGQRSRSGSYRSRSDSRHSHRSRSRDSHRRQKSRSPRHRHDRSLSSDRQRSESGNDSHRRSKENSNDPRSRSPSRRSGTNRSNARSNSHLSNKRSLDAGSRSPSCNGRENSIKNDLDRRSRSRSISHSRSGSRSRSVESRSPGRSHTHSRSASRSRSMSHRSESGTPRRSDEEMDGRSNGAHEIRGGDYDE
The settings on record: 20 nM protein, 1.5 uM RNA pool; 20 mM HEPES pH 7.8, 70 mM KCl, 10 mM NaCl, 10% glycerol, 2 mM DTT, 0.1 ug/uL BSA; 30 min, 4 C.

Series [6] concerns the target T6, SRSF3 (Tetraodon nigroviridis) (UniProt H3C295).
T6 sequence: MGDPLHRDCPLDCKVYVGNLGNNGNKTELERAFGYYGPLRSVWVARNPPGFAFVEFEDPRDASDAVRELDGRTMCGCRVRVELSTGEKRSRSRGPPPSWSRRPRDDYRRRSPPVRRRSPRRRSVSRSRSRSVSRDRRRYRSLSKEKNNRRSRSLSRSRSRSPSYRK
The settings on record: 20 nM protein, 1.5 uM RNA pool; 20 mM HEPES pH 7.8, 70 mM KCl, 10 mM NaCl, 10% glycerol, 2 mM DTT, 0.1 ug/uL BSA; 30 min, 4 C.

The target of a further series is HNRNPA2B1 (Homo sapiens) (UniProt P22626). The settings on record: 20 nM protein, 1.5 uM RNA pool; 20 mM HEPES pH 7.8, 70 mM KCl, 10 mM NaCl, 10% glycerol, 2 mM DTT, 0.1 ug/uL BSA; 30 min, 4 C (protocol of this paper; not …); cited from earlier work.
HNRNPA2B1 (Homo sapiens), sequence (P22626 1-233): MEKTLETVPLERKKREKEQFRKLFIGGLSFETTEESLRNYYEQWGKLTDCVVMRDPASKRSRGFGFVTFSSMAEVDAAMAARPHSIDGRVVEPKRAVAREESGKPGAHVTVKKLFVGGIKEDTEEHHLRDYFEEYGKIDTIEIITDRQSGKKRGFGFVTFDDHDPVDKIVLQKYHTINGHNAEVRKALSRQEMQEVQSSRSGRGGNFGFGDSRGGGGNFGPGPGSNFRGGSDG
For the next series, the target named is u2af2b (Danio rerio) (UniProt A0ACM8Q3Q6). The settings on record: 20 nM protein, 1.5 uM RNA pool; 20 mM HEPES pH 7.8, 70 mM KCl, 10 mM NaCl, 10% glycerol, 2 mM DTT, 0.1 ug/uL BSA; 30 min, 4 C.
u2af2b (Danio rerio), sequence (A0ACM8Q3Q6 entry or part of it): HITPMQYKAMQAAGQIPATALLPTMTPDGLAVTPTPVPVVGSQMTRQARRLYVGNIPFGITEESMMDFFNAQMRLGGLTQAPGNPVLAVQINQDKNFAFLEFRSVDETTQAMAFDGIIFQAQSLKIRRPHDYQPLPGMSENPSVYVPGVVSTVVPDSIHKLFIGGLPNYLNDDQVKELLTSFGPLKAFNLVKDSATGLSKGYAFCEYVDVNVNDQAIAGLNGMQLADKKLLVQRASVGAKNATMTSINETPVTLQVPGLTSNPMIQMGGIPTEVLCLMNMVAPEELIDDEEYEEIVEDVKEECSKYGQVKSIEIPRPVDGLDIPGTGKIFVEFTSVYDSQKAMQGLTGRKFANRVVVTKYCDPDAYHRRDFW

HNRNPC (Homo sapiens), sequence (P07910 1-131): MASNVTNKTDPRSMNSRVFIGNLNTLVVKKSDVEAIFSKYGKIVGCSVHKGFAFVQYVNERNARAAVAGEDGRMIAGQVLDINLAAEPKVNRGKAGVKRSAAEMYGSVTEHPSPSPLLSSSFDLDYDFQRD

Take UUUUUU [RNAcompete motif RNCMPT00025]: the binding signal (z-score (mean of top ten 7-mers)) in the series with HNRNPC (Homo sapiens) was 15.8.

For AGAUGA [RNAcompete motif RNCMPT00394], the binding signal (z-score (mean of top ten 7-mers)) in series [1] was 8.98. In the case of UUUUUUC [RNAcompete motif RNCMPT00414], the binding signal (z-score (mean of top ten 7-mers)) in [2] is 11.9. CUACUAG [RNAcompete motif RNCMPT00423] gave a binding signal (z-score (mean of top ten 7-mers)) in [3] of 15.3.

Consider AGUAA [RNAcompete motif RNCMPT00422], for which, in series [4], the binding signal (z-score (mean of top ten 7-mers)) turned out to be 9.16. CGGAGG [RNAcompete motif RNCMPT00417] gave a binding signal (z-score (mean of top ten 7-mers)) in series [5] of 13.5. As for AACAACG [RNAcompete motif RNCMPT00419], the binding signal (z-score (mean of top ten 7-mers)) in series [6] amounted to 7.35. As for UAGGGA [RNAcompete motif RNCMPT00024], in the series with HNRNPA2B1 (Homo sapiens), the binding signal (z-score (mean of top ten 7-mers)) was 8.86. In the series with u2af2b (Danio rerio), UUUUUC [RNAcompete motif RNCMPT00418] had a binding signal (z-score (mean of top ten 7-mers)) of 14.4.
